Measured values as given in PMC11062245.

Molecular target: T1, melanopsin (mOPN4-Flag), on Per2:ELuc:TK:Mel cells (mouse) (UniProt Q9QXZ9)
T1 sequence: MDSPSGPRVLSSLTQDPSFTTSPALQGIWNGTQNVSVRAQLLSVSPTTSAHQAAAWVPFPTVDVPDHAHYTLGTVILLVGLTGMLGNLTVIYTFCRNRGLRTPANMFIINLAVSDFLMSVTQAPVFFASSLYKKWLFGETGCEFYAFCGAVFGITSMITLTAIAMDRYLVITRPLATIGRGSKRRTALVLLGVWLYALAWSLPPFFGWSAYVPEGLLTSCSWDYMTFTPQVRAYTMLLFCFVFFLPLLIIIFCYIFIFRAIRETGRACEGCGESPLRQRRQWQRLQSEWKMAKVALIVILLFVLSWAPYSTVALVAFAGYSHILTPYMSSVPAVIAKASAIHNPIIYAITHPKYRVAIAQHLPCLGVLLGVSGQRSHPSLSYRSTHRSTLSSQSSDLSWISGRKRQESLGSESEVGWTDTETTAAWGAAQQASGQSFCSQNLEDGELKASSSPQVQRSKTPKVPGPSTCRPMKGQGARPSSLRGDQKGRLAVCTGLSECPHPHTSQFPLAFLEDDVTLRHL
Assay: cell binding fluorescence (microplate), EC50
Conditions: 6-FAM-Melapt (1.405-90 ug/mL) added to adherent cells in DMEM, 15 min, washed, fluorescence 495/517 nm, n=3, cells cultured at 37 C, 5% CO2, binding pH and …

Sequence | K half | K half (Results text gives 22.5 ug/mL, not saturated at 90 ug/mL)
AAAGGGGAATTCGGATCCCCGCACACGTGGAGCCAAGTCGAGTTTAATTCCCTATCGCCTGCAGAAGCTTCCGTTT [6-FAM-Melapt04] | 5.62 µg/mL | 
AAAGGGGAATTCGGATCCCGACCCGAAGGAGCGGTGGATAACCCCACCAAGATACGTCCTGCAGAAGCTTCCGTTT [6-FAM-Melapt01] | 11.2 µg/mL | 
AAAGGGGAATTCGGATCCTTCACCGATACGGCTCCCTTGGCCAGACAGGAAAAAATAACTGCAGAAGCTTCCGTTT [6-FAM-Melapt08] |  | 45 µg/mL
